In patent US20210355180A1:

How the values were obtained:
[1] = molecular target: N-terminally biotinylated human Aβ1-40 peptide (human); experiment: SPR (Biacore 2000), periplasm diluted 15x over hAβ1-40 surface (blank control)
[2] = molecular target: N-terminally biotinylated human Aβ1-40 peptide (human); experiment: ELISA, ABD periplasm captured on anti-ABD, 2 nM biotinylated hAβ1-40

Sequence of N-terminally biotinylated human Aβ1-40 peptide (human) (peptide, as listed by the source): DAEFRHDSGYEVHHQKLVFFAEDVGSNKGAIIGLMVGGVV

Substance: ABD (albumin binding domain GA3 from streptococcal Protein G), periplasm control (from UniProt P19909 254-299)
- Response RU [1]: 2 RU
- ELISA response (absorbance 450 nm) [2]: 0.063 AU
